T1: amphyphisin SH3 (AMPH_HUMAN), P49418
T1 chain: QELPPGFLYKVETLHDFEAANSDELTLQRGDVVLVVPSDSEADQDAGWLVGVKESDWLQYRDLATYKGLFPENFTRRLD

For the first assay, the target named is T1, amphyphisin SH3 (AMPH_HUMAN), P49418. Briefly: SPOT array.
With TSLSLRRPPGPASQ [Q15477 130-143], the normalised SPOT signal, Boehringer light units (BLU); mean over the file's lines of this peptide came to 33.9.
Still for that read-out and setting: the same measure for TSVPLARPLRTSEE [O94942 425-438]: 161; for TTRRPPRPPGSSRK [Q9C0H3 154-168]: 3160.
Still for that read-out and setting: the result for TRWPPSRPPPPSPF [Q9NP08 321-335] reads 363.
TVNLFKRPLPKSKP [Q9UNP7 5-18] came in with a normalised SPOT signal, Boehringer light units (BLU); mean over the file's lines of this peptide of 25.3.
Same read-out and setting: the same measure for TTPPPGRPPAPSSE [Q96KN1 287-301]: 24.7; for VAPRPARPPGDLGP [O00144 174-188]: 151; for VAEPPPRPPPPPPP [Q9NZM4 1290-1304]: 75.4.
Same read-out and setting: the same measure for TRSVLKRPERSQEE [P30304 268-281]: 89.1.
In turn, SGATLKRPMEFEAA [Q9H9L7 3-16] returned a normalised SPOT signal, Boehringer light units (BLU); mean over the file's lines of this peptide of 31.6.
On the same count and under the same terms, the result for TTVLIRRPDLRYQL [Q02410 746-759] reads 29.4; that for TTTPPTKPPSFNLH [Q99966 72-86], 54.
On the same count and under the same terms, the same measure for TSGSFRRPESPRPR [O15054 552-565]: 57.4.
As to TTVRPAKPPVVDRS [O95630 222-236], the normalised SPOT signal, Boehringer light units (BLU); mean over the file's lines of this peptide was found to be 34.9.
On the same count and under the same terms, the result for TSAPPSRPPPPRAT [Q9UKN4 408-422] reads 5540; that for TSPAPHRPPKRVKA [Q9NRC7 337-350], -0; that for TYQHLRRPRGLSSL [O60721 37-50], 31.3.
Still for that read-out and setting: the same measure for TYTAPPRPPKKREY [Q9P1Z0 111-124]: 189; for TTKVIRRPRRGRMG [O75334 571-584]: 118; for TTVLIKRPDLKYQL [Q99767 658-671]: 30.1.
On the same count and under the same terms, the same measure for VASGPSRPGREEHI [Q04671 237-250]: 2520; for TSPAPHRPPKRGPL [Q9UQD1 353-366]: 220.
The molecule TRTDPTRPIRTPVI [Q9ULT9 312-325] showed a normalised SPOT signal, Boehringer light units (BLU); mean over the file's lines of this peptide of 568.
On the same count and under the same terms, the result for VATDLGRPARSATG [Q96JQ0 2039-2052] reads 18.2; that for SGGRPARPDRGPEP [Q92914 53-66], 1740; that for TSWMPRRPSSPLKE [Q9H2L5 83-96], 36.5.
Same read-out and setting: the result for AAVTLKRPPPYQWD [Q9NRJ4 1113-1126] reads 42.1; that for VARSPKRPAWGSRR [Q9P1W0 38-51], 47.2.
Still for that read-out and setting: the result for TWQGLRRPPSVLGH [Q9C094 1911-1924] reads 64; that for TSFEPRRPPPLRPG [Q9P2S2 1586-1599], 32.4.
Turning to TRYSPYRPYRSVHQ [O60281 946-959], the normalised SPOT signal, Boehringer light units (BLU); mean over the file's lines of this peptide amounted to 1000.
Same read-out and setting: the same measure for TRVQPRRPTKGTHR [Q96EK0 35-48]: 38; for TSAVLRRPQKGRLA [Q13135 548-561]: 84.9; for TRYMFSRPFRKHGV [P46778 10-23]: 2180.
As to TSPTFRRPKTLRLR [P29316 42-55], the normalised SPOT signal, Boehringer light units (BLU); mean over the file's lines of this peptide was found to be 56.7.
Still for that read-out and setting: the result for SGKAFRRPSDLFRH [Q9NPV1 31-44] reads 28.3; that for TYSLLRRPFRQVLA [Q96P69 293-306], 691; that for TRSPPPRPPPPAIN [Q9BQL3 97-111], 1400.

In another assay the target is endophilin SH3 (SH3G2_HUMAN), Q99962. Nature of the assay: SPOT array.
For TSLSLRRPPGPASQ [Q15477 130-143], the normalised SPOT signal, Boehringer light units (BLU); mean over the file's lines of this peptide amounted to 26.8.
The same measure, in the same setting: the result for TSVPLARPLRTSEE [O94942 425-438] reads 186.
Regarding TTRRPPRPPGSSRK [Q9C0H3 154-168], the normalised SPOT signal, Boehringer light units (BLU); mean over the file's lines of this peptide is 11100.
The same measure, in the same setting: the same measure for TRWPPSRPPPPSPF [Q9NP08 321-335]: 7730.
In the case of TVNLFKRPLPKSKP [Q9UNP7 5-18], the normalised SPOT signal, Boehringer light units (BLU); mean over the file's lines of this peptide turned out to be 60.8.
The molecule TTPPPGRPPAPSSE [Q96KN1 287-301] registered a normalised SPOT signal, Boehringer light units (BLU); mean over the file's lines of this peptide of 4930.
VAPRPARPPGDLGP [O00144 174-188]: the normalised SPOT signal, Boehringer light units (BLU); mean over the file's lines of this peptide worked out at 630.
On the same count and under the same terms, the same measure for VAEPPPRPPPPPPP [Q9NZM4 1290-1304]: 609; for TRSVLKRPERSQEE [P30304 268-281]: 54.1; for SGATLKRPMEFEAA [Q9H9L7 3-16]: 0.
TTVLIRRPDLRYQL [Q02410 746-759] came in with a normalised SPOT signal, Boehringer light units (BLU); mean over the file's lines of this peptide of 16.2.
The same measure, in the same setting: the result for TTTPPTKPPSFNLH [Q99966 72-86] reads 647; that for TSGSFRRPESPRPR [O15054 552-565], 67.6.
In turn, TTVRPAKPPVVDRS [O95630 222-236] returned a normalised SPOT signal, Boehringer light units (BLU); mean over the file's lines of this peptide of 806.
As for TSAPPSRPPPPRAT [Q9UKN4 408-422], the normalised SPOT signal, Boehringer light units (BLU); mean over the file's lines of this peptide was 14100.
Still for that read-out and setting: the result for TSPAPHRPPKRVKA [Q9NRC7 337-350] reads 4.2; that for TYQHLRRPRGLSSL [O60721 37-50], 196; that for TYTAPPRPPKKREY [Q9P1Z0 111-124], 166.
TTKVIRRPRRGRMG [O75334 571-584] came in with a normalised SPOT signal, Boehringer light units (BLU); mean over the file's lines of this peptide of 150.
For the molecule TTVLIKRPDLKYQL [Q99767 658-671], the normalised SPOT signal, Boehringer light units (BLU); mean over the file's lines of this peptide is 74.4.
With VASGPSRPGREEHI [Q04671 237-250], the normalised SPOT signal, Boehringer light units (BLU); mean over the file's lines of this peptide was found to be 430.
TSPAPHRPPKRGPL [Q9UQD1 353-366] displayed a normalised SPOT signal, Boehringer light units (BLU); mean over the file's lines of this peptide of 4010.
Turning to TRTDPTRPIRTPVI [Q9ULT9 312-325], the normalised SPOT signal, Boehringer light units (BLU); mean over the file's lines of this peptide is 96.3.
Same read-out and setting: the result for VATDLGRPARSATG [Q96JQ0 2039-2052] reads 89.9; that for SGGRPARPDRGPEP [Q92914 53-66], 2500.
In turn, TSWMPRRPSSPLKE [Q9H2L5 83-96] registered a normalised SPOT signal, Boehringer light units (BLU); mean over the file's lines of this peptide of 684.
AAVTLKRPPPYQWD [Q9NRJ4 1113-1126] returned a normalised SPOT signal, Boehringer light units (BLU); mean over the file's lines of this peptide of 61.6.
Regarding VARSPKRPAWGSRR [Q9P1W0 38-51], the normalised SPOT signal, Boehringer light units (BLU); mean over the file's lines of this peptide is 1040.
Take TWQGLRRPPSVLGH [Q9C094 1911-1924]: the normalised SPOT signal, Boehringer light units (BLU); mean over the file's lines of this peptide stood at 346.
In the case of TSFEPRRPPPLRPG [Q9P2S2 1586-1599], the normalised SPOT signal, Boehringer light units (BLU); mean over the file's lines of this peptide was found to be 210.
On to TRYSPYRPYRSVHQ [O60281 946-959], for which the normalised SPOT signal, Boehringer light units (BLU); mean over the file's lines of this peptide came out at 913.
Molecule TRVQPRRPTKGTHR [Q96EK0 35-48] showed a normalised SPOT signal, Boehringer light units (BLU); mean over the file's lines of this peptide of 138.
On the same count and under the same terms, the result for TSAVLRRPQKGRLA [Q13135 548-561] reads 138; that for TRYMFSRPFRKHGV [P46778 10-23], 534.
The same measure, in the same setting: the same measure for TSPTFRRPKTLRLR [P29316 42-55]: 54.7.
The same measure, in the same setting: the result for SGKAFRRPSDLFRH [Q9NPV1 31-44] reads 26.9.
TYSLLRRPFRQVLA [Q96P69 293-306] registered a normalised SPOT signal, Boehringer light units (BLU); mean over the file's lines of this peptide of 715.
The same measure, in the same setting: the result for TRSPPPRPPPPAIN [Q9BQL3 97-111] reads 13300.

The record behind these values is PMC314469, “Protein Interaction Networks by Proteome Peptide Scanning” (PLoS Biology, 2004).
